Experimental data published in patent US20260217863A1 (UIF UNIVERSITY INDUSTRY FOUNDATION YONSEI UNIVERSITY, published 2026).
Substitutions are numbered along the chain they refer to.

Legend:
[1] = biological target: RNase A contained in the actual serum sample; test: cell-based or functional assay
[2] = biological target: RNase A contained in the pig swab actual sample (pig (sample: pig swab)); test: cell-based or functional assay
[3] = biological target: T1, Ribonuclease A (Type II-A) from bovine pancreas (bovine, UniProt P61823 27-150); test: cell-based or functional assay
T1 sequence (looked up): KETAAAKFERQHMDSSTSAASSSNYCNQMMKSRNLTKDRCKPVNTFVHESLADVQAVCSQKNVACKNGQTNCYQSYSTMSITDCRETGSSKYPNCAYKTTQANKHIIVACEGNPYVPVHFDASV

[4] = biological target: RNase A contained in the saliva swab actual sample; test: cell-based or functional assay
[5] = biological target: T1, Ribonuclease A (Type II-A) from bovine …; test: SPR, RNase A immobilized on the Au chip, fit of SPR signal against peptide concentration. The label is unnamed: it is printed in the light grey of the Peptide-1 marker at the top end of that curve, and agrees with the 1.3 ± 0.1 µM of the text.
Description: RNase A was immobilized on the gold surface of the SPR chip used in the SPR biosensor to conduct the binding analysis. For the manufacture of the SPR chip, a 2 nm thick titanium adhesive layer and a 48 nm thick gold surface were consecutively sputter-coated onto BK-7 glass (1×1 cm²). […] To analyze the binding of the expressed Fv antibody to RNase A, Fv antibodies in the concentration range of 0.37-100 nM were reacted using PBS buffer as the […] through association (10 minutes), equilibrium (5 minutes), and dissociation (10 minutes) steps. The washing buffer and total SPR measurements were performed at a flow rate of 15 μL/min. […]
Using the screened CDR3 amino acid sequences, the CDR3 regions of the screened Fv antibodies were synthesized as peptides, and the amino acid sequences were determined from the nucleotide sequences of the CDR3 regions as summarized in Table 7. […] The SPR signal was plotted according to the concentration of the synthetic peptides, and the affinity constants (KD) of these synthetic peptides were calculated through a fitting process.

[6] = biological target: T1, Ribonuclease A (Type II-A) from bovine …; test: SPR biosensor, RNase A immobilized on the Au chip, peptide in solution
Description: (§1) Binding analysis of the expressed FV antibody and synthesized peptides against RNase A was performed using an SPR (Surface Plasmon Resonance) biosensor from I-Cluebio (Seongnam, Korea). RNase A was immobilized on the gold surface of the SPR chip used in the SPR biosensor to conduct the binding analysis. For the manufacture of the SPR chip, a 2 nm thick titanium adhesive layer and a 48 nm thick gold surface were consecutively sputter-coated onto BK-7 glass (1×1 cm²). […] To analyze the binding of the expressed Fv antibody to RNase A, Fv antibodies in the concentration range of 0.37-100 nM were reacted using PBS buffer as the […] through association (10 minutes), equilibrium (5 minutes), and dissociation (10 minutes) steps. The washing buffer and total SPR measurements were performed at a flow rate of 15 μL/min. For the binding analysis of the synthesized peptides against RNase A, peptides in the concentration range of 0.37-100 nM were reacted using PBS buffer as the washing buffer through association (10 minutes), equilibrium (5 minutes), and dissociation (10 minutes) steps, and total SPR measurements were conducted at a flow rate of 15 μL/min.
Using the screened CDR3 amino acid sequences, the CDR3 regions of the screened Fv antibodies were synthesized as peptides, and the amino acid sequences were determined from the nucleotide sequences of the CDR3 regions as summarized in Table 7. These synthetic peptides (Peptide-1, Peptide-2, Peptide-3) and Fv antibodies (Fv-1, Fv-2, Fv-3) were identical to the amino acid sequences of the CDR3 regions of the screened clones. The expression of the Fv antibodies was confirmed using SDS-PAGE, and the molecular weight of the Fv antibodies was estimated to be 69.2 kDa as shown in FIG. 9. The affinity constant (KD) of the synthetic peptides and the expressed Fv antibodies against RNase A was estimated using an SPR biosensor.

[7] = biological target: T1, Ribonuclease A (Type II-A) from bovine …; test: SPR biosensor, RNase A immobilized on the Au chip, expressed Fv antibody in solution
Description: as §1
Using the screened CDR3 amino acid sequences, the CDR3 regions of the screened Fv antibodies were synthesized as peptides, and the amino acid sequences were determined from the nucleotide sequences of the CDR3 regions as summarized in Table 2. These synthetic peptides (Peptide-1, Peptide-2, Peptide-3) and Fv antibodies (Fv-1, Fv-2, Fv-3) were identical to the amino acid sequences of the CDR3 regions of the screened clones. The expression of the Fv antibodies was confirmed using SDS-PAGE, and the molecular weight of the Fv antibodies was estimated to be 69.2 kDa as shown in FIG. 9. The affinity constants (KD) of these synthetic peptides and the expressed Fv antibodies against RNase A were estimated using an SPR biosensor.

[8] = biological target: T1, Ribonuclease A (Type II-A) from bovine …; test: cell-based or functional assay; remark: listed apart in the source

B1: Peptide-1, synthetic peptide with the CDR3 sequence of the screened clone (peptide)
peptide: CGPDSDVMTDF
notes: Bought from Peptron, 90% purity; Peptide-1 is tied to the CDR3 of clone 5 / Fv-1 by the order of the names only; also called peptides-1
- decrease of RNase A activity after approximately 27 minutes, cCMP assay, serum actual sample, 1 µM inhibitor [1]: ~53%
- decrease of RNase A activity after approximately 27 minutes, cCMP assay, pig swab actual sample, 1 µM inhibitor [2]: ~41%
- IC50, cCMP assay (hydrolysis of 2',3'-cyclic CMP, absorbance at 286 nM) [3]: 0.607 µM
- IC50 by linear regression, RNA probe assay [3]: 8.1 µM
- IC50 for the inhibition of RNase A activity, HeLa total RNA cleavage, agarose gel image [3]: 0.995 µM
- peptide concentration at which the RNase inhibition activity is over 50%, HeLa total RNA cleavage, agarose gel [3]: > 1 µM
- relative inhibition level after 60 minutes, RNA probe assay (fluorophore and quencher), peptide at 1 µM [3]: 54.4%
- decrease of RNase A activity after approximately 27 minutes, cCMP assay, saliva swab actual sample, 1 µM inhibitor [4]: ~30%
- Kd [5]: 1.35 µM
- Kd [6]: 1.3 µM

B2: Peptide-2, synthetic peptide with the CDR3 sequence of the screened clone (peptide)
peptide: YGPVGRVKRDD
notes: also called peptides-2
- decrease of RNase A activity after approximately 27 minutes, cCMP assay, serum actual sample, 1 µM inhibitor [1]: ~55%
- decrease of RNase A activity after approximately 27 minutes, cCMP assay, pig swab actual sample, 1 µM inhibitor [2]: ~41%
- IC50, cCMP assay (hydrolysis of 2',3'-cyclic CMP, absorbance at 286 nM) [3]: 0.373 µM
- IC50 by linear regression, RNA probe assay [3]: 3.6 µM
- IC50 for the inhibition of RNase A activity, HeLa total RNA cleavage, agarose gel image [3]: 0.658 µM
- peptide concentration at which the RNase inhibition activity is over 50%, HeLa total RNA cleavage, agarose gel [3]: > 1 µM
- relative inhibition level after 60 minutes, RNA probe assay (fluorophore and quencher), peptide at 1 µM [3]: 53.2%
- decrease of RNase A activity after approximately 27 minutes, cCMP assay, saliva swab actual sample, 1 µM inhibitor [4]: ~44%
- Kd [6]: 1.3 µM

B3: Fv-1, expressed soluble Fv antibody of clone 5 (His-tag-TdTomato-VH) (other)
chain: EVQLVESAAEVRRPGASVKITCKASGYSFSTYGIQWMRQAPGQRPEWLGWIHAGTGGTKYSRKFQGRITITRDTSANTVYLDLNSLTSEDTAVYYCARCGPDSDVMTDFWGQGTTVTVSS
notes: Fusion protein made in E. coli from a recombinant plasmid (pJS001 to pJS003, not tied one by one); molecular weight estimated 69.2 kDa; No light chain; also called expressed Fv antibody; TdTomato-labeled Fv antibody; not shown: His-tag; TdTomato fluorescent protein
- decrease of RNase A activity after approximately 27 minutes, cCMP assay, serum actual sample, 1 µM inhibitor [1]: ~55%
- decrease of RNase A activity after approximately 27 minutes, cCMP assay, pig swab actual sample, 1 µM inhibitor [2]: ~61%
- Fv-antibody concentration at which the RNase inhibitory activity is over 50%, HeLa total RNA cleavage, agarose gel [3]: ≥ 350 nM
- IC50, RNase activity analysis with the RNA probe [3]: 0.0902 µM
- IC50, cCMP assay (hydrolysis of 2',3'-cyclic CMP, absorbance at 286 nM) [3]: 0.194 µM
- IC50 for RNase A activity inhibition, HeLa total RNA cleavage, agarose gel image, dose-response curve fitting [3]: 0.234 µM
- decrease of RNase A activity after approximately 27 minutes, cCMP assay, saliva swab actual sample, 1 µM inhibitor [4]: ~42%
- Kd [7]: 0.0175 µM

B4: Fv-2, expressed soluble Fv antibody of clone 23 (His-tag-TdTomato-VH) (other)
chain: B3 chain with C99Y, D102V, S103G, D104R, M106K, T107R, F109D
notes: Fusion protein made in E. coli; 69.2 kDa; No light chain; not shown: His-tag; TdTomato fluorescent protein
- decrease of RNase A activity after approximately 27 minutes, cCMP assay, serum actual sample, 1 µM inhibitor [1]: ~55%
- decrease of RNase A activity after approximately 27 minutes, cCMP assay, pig swab actual sample, 1 µM inhibitor [2]: ~49%
- Fv-antibody concentration at which the RNase inhibitory activity is over 50%, HeLa total RNA cleavage, agarose gel [3]: ≥ 350 nM
- IC50, RNase activity analysis with the RNA probe [3]: 0.0653 µM
- IC50, cCMP assay (hydrolysis of 2',3'-cyclic CMP, absorbance at 286 nM) [3]: 0.236 µM
- IC50 for RNase A activity inhibition, HeLa total RNA cleavage, agarose gel image, dose-response curve fitting [3]: 0.366 µM
- decrease of RNase A activity after approximately 27 minutes, cCMP assay, saliva swab actual sample, 1 µM inhibitor [4]: ~63%
- Kd [7]: 0.0288 µM

B5: Fv-3, expressed soluble Fv antibody of clone 39 (His-tag-TdTomato-VH) (other)
chain: B3 chain with C99D, P101T, D102A, S103K, D104K, V105S, M106R, T107K, F109D
notes: as for B4
- decrease of RNase A activity after approximately 27 minutes, cCMP assay, serum actual sample, 1 µM inhibitor [1]: ~52%
- decrease of RNase A activity after approximately 27 minutes, cCMP assay, pig swab actual sample, 1 µM inhibitor [2]: ~55%
- Fv-antibody concentration at which the RNase inhibitory activity is over 50%, HeLa total RNA cleavage, agarose gel [3]: ≥ 350 nM
- IC50, RNase activity analysis with the RNA probe [3]: 0.0988 µM
- IC50, cCMP assay (hydrolysis of 2',3'-cyclic CMP, absorbance at 286 nM) [3]: 0.196 µM
- IC50 for RNase A activity inhibition, HeLa total RNA cleavage, agarose gel image, dose-response curve fitting [3]: 0.436 µM
- decrease of RNase A activity after approximately 27 minutes, cCMP assay, saliva swab actual sample, 1 µM inhibitor [4]: ~60%
- Kd [7]: 0.0339 µM
- IC50 (RNase A activity after treatment with Fv-3 beads, 1/10 diluted Pig Swab, RNase A 10 ng, RNA gel) [8]: 0.632 µM
- IC50 (RNase A activity after treatment with Fv-3 beads, 1/10 diluted Saliva Swab, RNase A 10 ng, RNA gel) [8]: 0.838 µM
- IC50 (RNase A activity after treatment with Fv-3 beads, 1/10 diluted Serum, RNase A 10 ng, RNA gel) [8]: 1.01 µM

B6: Peptide-3, synthetic peptide with the CDR3 sequence of the screened clone (peptide)
peptide: DGTAKKSRKDD
notes: also called peptides-3
- decrease of RNase A activity after approximately 27 minutes, cCMP assay, serum actual sample, 1 µM inhibitor [1]: ~60%
- decrease of RNase A activity after approximately 27 minutes, cCMP assay, pig swab actual sample, 1 µM inhibitor [2]: ~41%
- IC50, cCMP assay (hydrolysis of 2',3'-cyclic CMP, absorbance at 286 nM) [3]: 0.356 µM
- IC50 by linear regression, RNA probe assay [3]: 0.4 µM
- IC50 for the inhibition of RNase A activity, HeLa total RNA cleavage, agarose gel image [3]: 0.464 µM
- peptide concentration at which the RNase inhibition activity is over 50%, HeLa total RNA cleavage, agarose gel [3]: > 1 µM
- relative inhibition level after 60 minutes, RNA probe assay (fluorophore and quencher), peptide at 1 µM [3]: 50.3%
- decrease of RNase A activity after approximately 27 minutes, cCMP assay, saliva swab actual sample, 1 µM inhibitor [4]: ~35%
- Kd [6]: 3.7 µM
